Results reported in patent US20040151715A1 (SCHERING, published 2004).
Positions count from the first letter of the chain named. Numbers in names are those of the source.

Key:
[1] = biological target: T1, human ADAM33 catalytic domain (human, UniProt Q9BZ11 204-409); test: HPLC assay of KL-1 peptide (100 µM) cleavage by ADAM33cat (80 nM), TIMP pre-incubated 1 h at RT; competitive inhibition fit
T1 construct: Expressed in Drosophila S2 cells as pre/pro/cat with a C-terminal Ser-Gly-His6 tag and processed at RGRR203/EARR; also called CAT domain; protease domain
T1 sequence: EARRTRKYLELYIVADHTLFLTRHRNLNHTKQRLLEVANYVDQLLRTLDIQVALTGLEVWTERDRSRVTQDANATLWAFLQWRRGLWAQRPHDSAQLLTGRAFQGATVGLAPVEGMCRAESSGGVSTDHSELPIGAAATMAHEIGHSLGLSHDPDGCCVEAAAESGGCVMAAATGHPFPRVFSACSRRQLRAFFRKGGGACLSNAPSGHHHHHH
Description: (§1) The inhibition dissociation constants (Kᵢ) for inhibitors were determined as follows: an HPLC assay was performed in the presence or absence of inhibitors for 2 h at RT using ADAM33cat (80 nM) and KL-1 peptide substrate (100 μM). For testing tissue inhibitor of metalloproteinases (TIMPs), ADAM33 and human TIMPs were pre-incubated for 1 h at RT. Serial dilutions of TIMPs or synthetic inhibitors were tested starting at 4 μM (TIMP-2, -3, 4), 2 μM (TIMP-1, IK682), 20 μM (Marimastat), or 200 μM (Immunex compound 1: N-{DL-[2-(hydroxyamino-carbonyl)methyl]4-methylpentanoyl}-L-3-(tertbutyl)glycyl-L-alanine,2-aminoethylamide). Initial velocities were calculated by dividing cleaved product over reaction time. The initial velocities were plotted as a function of inhibitor concentration. For tight binding inhibitors (IK682, TIMP-3), the apparent inhibitor dissociation constants (Kᵢ app values) were calculated by fitting the curve to the following modified Morrison's equation: […]
(§2) The cleavage of the KL-1 peptide by ADAM33 was used to evaluate the effect of different classes of protease inhibitors. Inhibition constants of several hydroxamate compounds, known to inhibit either ADAM17 [IK682, and the Immunex compound 1] or MMPs [Marimastat], were determined. […] Human TIMP-1, -2, -3 and -4, endogenous inhibitors of MMPs and ADAMs, were tested for inhibition of ADAM33 activity.

[2] = biological target: T1, human ADAM33 catalytic domain; test: co-purification during chromatography; heterodimer not disrupted by APMA and/or detergents
[3] = biological target: T1, human ADAM33 catalytic domain; test: HPLC assay of KL-1 peptide (100 µM) cleavage by ADAM33cat (80 nM), TIMP pre-incubated 1 h at RT; Morrison tight-binding fit (Ki app)
Description: as §1, §2

[4] = biological target: T2, MCF substrate peptide (Ac-LPPVAASSLNRD-NH2)
T2 chain: LPPVAASSLNRD

APP peptide (YEVHHQKLVF) = biological target: T3, APP peptide (YEVHHQKLVF)
T3 chain: YEVHHQKLVF

[5] = biological target: T4, KL-1 peptide (PPVAASSLRN)
T4 chain: PPVAASSLRN

[6] = biological target: T5, TRANCE peptide (VGSQHIRAEK)
T5 chain: VGSQHIRAEK

[7] = biological target: T6, human ADAM33 pro domain (wild type)
T6 chain: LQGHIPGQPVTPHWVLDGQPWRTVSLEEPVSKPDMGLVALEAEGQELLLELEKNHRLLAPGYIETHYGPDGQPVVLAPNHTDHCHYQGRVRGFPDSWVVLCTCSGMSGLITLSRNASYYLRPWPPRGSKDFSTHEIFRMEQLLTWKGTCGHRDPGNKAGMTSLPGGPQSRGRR

[8] = biological target: T7, insulin B chain peptide (HLVEALYLVC)
T7 chain: HLVEALYLVC

B1: human TIMP-4 (tissue inhibitor of metalloproteinases 4) (other, UniProt Q99727 30-224, looked up)
chain: CSCAPAHPQQHICHSALVIRAKISSEKVVPASADPADTEKMLRYEIKQIKMFKGFEKVKDVQYIYTPFDSSLCGVKLEANSQKQYLLTGQVLSDGKVFIHLCNYIEPWEDLSLVQRESLNHHYHLNCGCQITTCYTVPCTISAPNECLWTDWLLERKLYGYQAQHYVCMKHVDGTCSWYRGHLPLRKEFVDIVQP
- Ki [1]: 223 nM

B2: human ADAM33 pro domain C131A (other)
chain: T6 chain with C101A
notes: The whole pro/cat entry is named; The protein was processed at the pro-CAT junction, so only the part before EARR is the pro domain
- percent of protease domain associated with the pro domain [2]: > 80%

B3: human ADAM33 pro domain C131A/C179A (other)
chain: T6 chain with C101A, C149A
notes: as for B2
- percent of protease domain associated with the pro domain [2]: > 80%

B4: human ADAM33 pro domain C179A (other)
chain: T6 chain with C149A
notes: as for B2
- percent of protease domain associated with the pro domain [2]: > 80%

B5: human TIMP-3 (tissue inhibitor of metalloproteinases 3) (other, UniProt P35625 24-211, looked up)
chain: CTCSPSHPQDAFCNSDIVIRAKVVGKKLVKEGPFGTLVYTIKQMKMYRGFTKMPHVQYIHTEASESLCGLKLEVNKYQYLLTGRVYDGKMYTGLCNFVERWDQLTLSQRKGLNYRYHLGCNCKIKSCYYLPCFVTSKNECLWTDMLSNFGYPGYQSKHYACIRQKGGYCSWYRGWAPPDKSIINATDP
- Ki [3]: 64 nM

B6: single chain zymogen form of ADAM33 (R203T/R207S) (protein)
chain: LQGHIPGQPVTPHWVLDGQPWRTVSLEEPVSKPDMGLVALEAEGQELLLELEKNHRLLAPGYIETHYGPDGQPVVLAPNHTDHCHYQGRVRGFPDSWVVLCTCSGMSGLITLSRNASYYLRPWPPRGSKDFSTHEIFRMEQLLTWKGTCGHRDPGNKAGMTSLPGGPQSRGRTEARSTRKYLELYIVADHTLFLTRHRNLNHTKQRLLEVANYVDQLLRTLDIQVALTGLEVWTERDRSRVTQDANATLWAFLQWRRGLWAQRPHDSAQLLTGRAFQGATVGLAPVEGMCRAESSGGVSTDHSELPIGAAATMAHEIGHSLGLSHDPDGCCVEAAAESGGCVMAAATGHPFPRVFSACSRRQLRAFFRKGGGACLSNAP
- catalytic efficiency on the MCF peptide [4]: showed no significant difference to that of the CAT domain

B7: human ADAM33 catalytic domain (protein)
chain: T1 sequence
- Km (APP peptide (YEVHHQKLVF)): 1000 ± 100 µM
- kcat (APP peptide (YEVHHQKLVF)): 0.2 ± 0.1 s⁻¹
- kcat/Km (APP peptide (YEVHHQKLVF)): (1.6±0.3)×10^2 M^-1 s^-1 (n=2)
- peptide cleavage (HPLC; site by MALDI-TOF MS) (APP peptide (YEVHHQKLVF)): ADAM33 cleaved the APP peptide at H * Q
- Km [5]: 3000 ± 100 µM
- kcat [5]: 0.7 ± 0.1 s⁻¹
- kcat/Km [5]: (2.6±0.5)×10^2 M^-1 s^-1 (n=3)
- peptide cleavage (HPLC; site by MALDI-TOF MS) [5]: ADAM33 cleaved the ... KL-1 peptide at A * S
- Km [4]: suggesting a Km value greater than the highest tested concentration (500 µM)
- catalytic efficiency (kcat/Km) [4]: 2.6±0.5)×10^2 M^-1 s^-1
- peptide cleavage (HPLC) [4]: The wild-type ADAM33 cleaved the peptide between the residues corresponding to Ala-190 and Ser-191
- peptide cleavage (HPLC; site by MALDI-TOF MS) [6]: ADAM33 cleaved the ... human TRANCE peptide at H * I
- catalytic efficiency of the pro/CAT complex on the MCF peptide, tested at 50 nM-1 µM [7]: comparable to that of the CAT domain
- peptide cleavage (HPLC; site by MALDI-TOF MS) [8]: ADAM33 cleaved the ... insulin B chain peptide at A * L
